Data on one protein can be found in paper PMC6389178, “Nanoscale click-reactive scaffolds from peptide self-assembly” (Journal of Nanobiotechnology, 2017).

The series deals with the molecule itself. The series can be described thus: atomic force microscopy + co-sedimentation; peptide 10 mg/mL in 10% acetonitrile in water, shaken at 600 rpm at 37 °C for 24 h; fibrils imaged by AFM on mica; fibrils pelleted at 313,000 x g for 30 min, supernatant with unaggregated monomer removed, and the pellet's peptide analysed by LC-MS.

Where no end group is shown, it is not given here.

Take YTIAALLSPYS-NH2 [TTR105-115 peptide, unfunctionalised 'wild-type', amide-terminated]: the binding result was “binds”.
